Assay results: US20240360194A1, “New Peptides as Potent and Selective GIP Receptor Agonists” (Sanofi, priority 2021, published 2024)
≈ marks a conversion by molar mass, not a printed value. Numbered stars: 1 amine (or outer) side, 2 acyl side, 3 side chain; on linkers, the order of the positions; unused ones are H or OH. Square brackets hold non-standard residues; d marks the D form. Side chains are listed from the residue outwards. Ends that are not written are not given here. Peptide text beside a SMILES is read from it. * marks the point of attachment. C18 diacid = O=C(O)CCCCCCCCCCCCCCCCC(=O)*; γGlu = O=C(O)[C@H](CCC(=O)[*:2])N[*:1]; αMeF = C[C@](N)(Cc1ccccc1)C(=O)O; hLeu = CC(C)CC[C@H](N)C(=O)O; AEEA = NCCOCCOCC(=O)O; Aib = CC(C)(N)C(=O)O

B1: SEQ ID NO: 34 (peptide)
peptide: H-Y[Aib]EGTFISD[hLeu]SI[Aib]K([AEEA-AEEA-γGlu-C18 diacid])DRIHQEEFIEWLLAQGPSSGAPPPS-NH2
SMILES: CC[C@H](C)[C@H](NC(=O)[C@H](Cc1ccccc1)NC(=O)[C@H](CCC(=O)O)NC(=O)[C@H](CCC(=O)O)NC(=O)[C@H](CCC(N)=O)NC(=O)[C@H](Cc1c[nH]cn1)NC(=O)[C@@H](NC(=O)[C@H](CCCNC(=N)N)NC(=O)[C@H](CC(=O)O)NC(=O)[C@H](CCCCNC(=O)COCCOCCNC(=O)COCCOCCNC(=O)CC[C@H](NC(=O)CCCCCCCCCCCCCCCCC(=O)O)C(=O)O)NC(=O)C(C)(C)NC(=O)[C@@H](NC(=O)[C@H](CO)NC(=O)[C@H](CCC(C)C)NC(=O)[C@H](CC(=O)O)NC(=O)[C@H](CO)NC(=O)[C@@H](NC(=O)[C@H](Cc1ccccc1)NC(=O)[C@@H](NC(=O)CNC(=O)[C@H](CCC(=O)O)NC(=O)C(C)(C)NC(=O)[C@@H](N)Cc1ccc(O)cc1)[C@@H](C)O)[C@@H](C)CC)[C@@H](C)CC)[C@@H](C)CC)C(=O)N[C@@H](CCC(=O)O)C(=O)N[C@@H](Cc1c[nH]c2ccccc12)C(=O)N[C@@H](CC(C)C)C(=O)N[C@@H](CC(C)C)C(=O)N[C@@H](C)C(=O)N[C@@H](CCC(N)=O)C(=O)NCC(=O)N1CCC[C@H]1C(=O)N[C@@H](CO)C(=O)N[C@@H](CO)C(=O)NCC(=O)N[C@@H](C)C(=O)N1CCC[C@H]1C(=O)N1CCC[C@H]1C(=O)N1CCC[C@H]1C(=O)N[C@@H](CO)C(N)=O
notes: Synthetic peptide, 39 residues
B2: SEQ ID NO: 32 (peptide)
peptide: H-Y[Aib]EGTFISDLSI[Aib]K([AEEA-AEEA-γGlu-C18 diacid])DRIHQEE[αMeF]IEWLLAQGPSSGAPPPS-NH2
SMILES: CC[C@H](C)[C@H](NC(=O)[C@H](CCCNC(=N)N)NC(=O)[C@H](CC(=O)O)NC(=O)[C@H](CCCCNC(=O)COCCOCCNC(=O)COCCOCCNC(=O)CC[C@H](NC(=O)CCCCCCCCCCCCCCCCC(=O)O)C(=O)O)NC(=O)C(C)(C)NC(=O)[C@@H](NC(=O)[C@H](CO)NC(=O)[C@H](CC(C)C)NC(=O)[C@H](CC(=O)O)NC(=O)[C@H](CO)NC(=O)[C@@H](NC(=O)[C@H](Cc1ccccc1)NC(=O)[C@@H](NC(=O)CNC(=O)[C@H](CCC(=O)O)NC(=O)C(C)(C)NC(=O)[C@@H](N)Cc1ccc(O)cc1)[C@@H](C)O)[C@@H](C)CC)[C@@H](C)CC)C(=O)N[C@@H](Cc1c[nH]cn1)C(=O)N[C@@H](CCC(N)=O)C(=O)N[C@@H](CCC(=O)O)C(=O)N[C@@H](CCC(=O)O)C(=O)N[C@@](C)(Cc1ccccc1)C(=O)N[C@H](C(=O)N[C@@H](CCC(=O)O)C(=O)N[C@@H](Cc1c[nH]c2ccccc12)C(=O)N[C@@H](CC(C)C)C(=O)N[C@@H](CC(C)C)C(=O)N[C@@H](C)C(=O)N[C@@H](CCC(N)=O)C(=O)NCC(=O)N1CCC[C@H]1C(=O)N[C@@H](CO)C(=O)N[C@@H](CO)C(=O)NCC(=O)N[C@@H](C)C(=O)N1CCC[C@H]1C(=O)N1CCC[C@H]1C(=O)N1CCC[C@H]1C(=O)N[C@@H](CO)C(N)=O)[C@@H](C)CC
notes: as for B1
B3: SEQ ID NO: 19 (peptide)
peptide: Y[Aib]EGTFISDLSI[Aib]K([AEEA-AEEA-γGlu-C18 diacid])EEIHQ[Aib]EFIEWLLAQGPSSGAPPPS-NH2
modifications: N-terminus assumed
SMILES: CC[C@H](C)[C@H](NC(=O)[C@H](CCC(=O)O)NC(=O)[C@H](CCC(=O)O)NC(=O)[C@H](CCCCNC(=O)COCCOCCNC(=O)COCCOCCNC(=O)CC[C@H](NC(=O)CCCCCCCCCCCCCCCCC(=O)O)C(=O)O)NC(=O)C(C)(C)NC(=O)[C@@H](NC(=O)[C@H](CO)NC(=O)[C@H](CC(C)C)NC(=O)[C@H](CC(=O)O)NC(=O)[C@H](CO)NC(=O)[C@@H](NC(=O)[C@H](Cc1ccccc1)NC(=O)[C@@H](NC(=O)CNC(=O)[C@H](CCC(=O)O)NC(=O)C(C)(C)NC(=O)[C@@H](N)Cc1ccc(O)cc1)[C@@H](C)O)[C@@H](C)CC)[C@@H](C)CC)C(=O)N[C@@H](Cc1c[nH]cn1)C(=O)N[C@@H](CCC(N)=O)C(=O)NC(C)(C)C(=O)N[C@@H](CCC(=O)O)C(=O)N[C@@H](Cc1ccccc1)C(=O)N[C@H](C(=O)N[C@@H](CCC(=O)O)C(=O)N[C@@H](Cc1c[nH]c2ccccc12)C(=O)N[C@@H](CC(C)C)C(=O)N[C@@H](CC(C)C)C(=O)N[C@@H](C)C(=O)N[C@@H](CCC(N)=O)C(=O)NCC(=O)N1CCC[C@H]1C(=O)N[C@@H](CO)C(=O)N[C@@H](CO)C(=O)NCC(=O)N[C@@H](C)C(=O)N1CCC[C@H]1C(=O)N1CCC[C@H]1C(=O)N1CCC[C@H]1C(=O)N[C@@H](CO)C(N)=O)[C@@H](C)CC
notes: as for B1

How the values were obtained:
[1] = Chemical stability assessment (UHPLC-UV purity loss on storage in solution); format: physicochemical; conditions: Chemical stability buffer system A: 20 mM phosphate buffer pH 7.4; ~300 μM
Description: Purity of a peptide batch was determined through UHPLC/MS prior to chemical stability measurement. The target concentration was 300 μM pure compound. Solutions from solid samples were prepared in the following buffer systems with a concentration of ˜300 μM compound based on the previously determined % purity: • Chemical stability buffer system A) 20 mM phosphate buffer pH 7.4, • Chemical stability buffer system B) 8 mM phosphate buffer pH 7.4, 14 mg/ml propylene glycol, 5.5 mg/ml phenol • Chemical stability buffer system C) 100 mM phosphate buffer pH 7.4, 2.7 mg/ml m-cresol
Prepared solutions were filtered through […] pore size and filled into sterilized glass containers under laminar flow conditions.
Glass containers were stored for 28 days at 5 and 40° C. After this time, the samples were centrifuged for 15 min at 2500 RCF. Then 1.5 μl of the undiluted supernatant were analysed with UHPLC-UV.
The chemical stability was rated through the relative loss of purity calculated by the equation: […]
The purity is calculated as
The analytical methods used were Analytical UHPLC Method B or C.
Peptide samples were prepared in Chemical stability buffer system A or B and stability was assessed as described in Methods.

[2] = Solubility assessment (UHPLC-UV of supernatant, target 10 mg/ml); format: physicochemical
In short: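 Peptides at 10 mg/ml (purity-corrected) in 100 mM phosphate pH 7.4, optionally with 2.7 mg/ml m-cresol; gentle agitation 1 h, then 5° C. overnight (24 h). Supernatant after 15 min centrifugation at 2500 RCF quantified by UHPLC-UV, with sequence-based extinction coefficients.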

[3] = target: human GLP-1 receptor (hGLP-1R) (Homo sapiens, UniProt P43220); assay: In vitro cellular cAMP assay for GLP-1 receptor efficacy (HEK-293 cell line over-expressing receptor); format: cell-based; conditions: HEK-293, 0.1% BSA
human GIP receptor [4] = target: T1, human GIP receptor (Homo sapiens, UniProt P48546); assay: In vitro cellular cAMP assay for GIP receptor efficacy (human adipocytes); format: cell-based; conditions: read-out: hGIPR Emax
T1 construct: human adipocytes endogenously expressing the human GIP receptor; host or cells: human preadipocytes (Lonza) differentiated to adipocytes
T1 sequence (P48546 22-466): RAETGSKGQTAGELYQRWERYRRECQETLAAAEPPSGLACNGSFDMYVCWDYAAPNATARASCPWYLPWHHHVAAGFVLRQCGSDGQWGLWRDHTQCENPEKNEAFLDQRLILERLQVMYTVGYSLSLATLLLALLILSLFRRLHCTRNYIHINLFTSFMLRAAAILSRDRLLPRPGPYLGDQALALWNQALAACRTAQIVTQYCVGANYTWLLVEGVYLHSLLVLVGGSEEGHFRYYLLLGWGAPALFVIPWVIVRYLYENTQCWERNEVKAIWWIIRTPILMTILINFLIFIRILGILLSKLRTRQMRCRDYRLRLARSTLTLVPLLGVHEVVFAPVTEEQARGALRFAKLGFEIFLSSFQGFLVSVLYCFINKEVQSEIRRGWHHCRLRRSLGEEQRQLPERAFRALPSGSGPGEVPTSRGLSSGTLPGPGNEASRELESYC
In short: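 cAMP is read by HTRF (665/620 nm ratio, 1 h after reagents in lysis buffer) following 30 min compound exposure at room temperature. Cells are human preadipocyte-derived adipocytes, differentiated 6 days with insulin, dexamethasone, IBMX (200 μM), PPARγ agonist and L-thyroxine, seeded 5000 per well.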

[5] = target: T2, human GIP receptor (hGIPR) (Homo sapiens, UniProt P48546); assay: Binding assay, displacement of [125I]GIP from HEK-293 membranes over-expressing GIPR (SPA); conditions: [125I]GIP displacement
T2 sequence (P48546 22-466): T1 sequence (P48546 22-466)
In short: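 Membranes from HEK-293 cells over-expressing human GIPR or GLP-1R, isolated by homogenising, sonicating and ultracentrifuging at 100000×g into HEPES/EDTA/NaCl buffer with protease inhibitors, were used for binding.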

human GIP receptor [6] = target: T3, human GIP receptor (human, UniProt P48546 22-466); assay: cell-based or functional assay
T3 sequence (looked up): T1 sequence (P48546 22-466)

human GLP-1 receptor [7] = target: T4, human GLP-1 receptor (human, UniProt P43220 24-463); assay: cell-based or functional assay
human GIP receptor [8] = target: T3, human GIP receptor; assay: cell-based or functional assay; remark: listed apart in the source
human GLP-1 receptor [9] = target: T4, human GLP-1 receptor; assay: displacement of [125I]GLP-1 from HEK-293 membranes expressing hGLP-1R (SPA beads)
human GIP receptor [10] = target: T3, human GIP receptor; assay: displacement of [125I]GIP from HEK-293 membranes expressing hGIPR (SPA beads)

Sequence of human GLP-1 receptor (hGLP-1R) (P43220 24-463): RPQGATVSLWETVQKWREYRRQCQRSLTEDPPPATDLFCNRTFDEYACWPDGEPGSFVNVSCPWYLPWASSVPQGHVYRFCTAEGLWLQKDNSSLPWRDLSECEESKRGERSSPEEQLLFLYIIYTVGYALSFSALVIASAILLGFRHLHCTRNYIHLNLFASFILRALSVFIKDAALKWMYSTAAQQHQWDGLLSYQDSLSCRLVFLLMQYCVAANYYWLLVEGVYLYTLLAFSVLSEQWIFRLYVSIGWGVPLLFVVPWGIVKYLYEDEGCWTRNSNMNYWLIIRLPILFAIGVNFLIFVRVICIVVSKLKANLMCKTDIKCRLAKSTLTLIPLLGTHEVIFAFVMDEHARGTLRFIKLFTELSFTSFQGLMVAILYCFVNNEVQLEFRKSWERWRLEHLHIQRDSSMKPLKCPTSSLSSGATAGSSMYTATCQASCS

Row | Molecule | Relative purity loss over 28 days at 40° C. [1] [%] | Soluble amount ([2]; 24 h, pH 7.4) [mg/mL] | solubility at 24 h ([2]; pH 7.4, Soluble amount) [µg/mL] | EC50 [3] [nM] | Emax (human GIP receptor [4]) [%] | IC50 [5] [nM] | EC50 hGIPR 0% HSA (cAMP, HEK-293) (human GIP receptor [6]) [nM] | EC50 hGIPR 0.1% BSA (cAMP, HEK-293) (human GIP receptor [6]) [nM] | EC50 hGLP-1R 0.1% BSA (cAMP, HEK-293) (human GLP-1 receptor [7]) [nM] | hGIPR EC50 (cAMP, human adipocytes) (human GIP receptor [8]) [nM] | hGIPR Emax (cAMP, human adipocytes) (human GIP receptor [8]) [%] | IC50 (human GLP-1 receptor [9]) [nM] | EC50 hGIPR 0.1% HSA (cAMP, HEK-293) (human GIP receptor [6]) [nM] | IC50 (human GIP receptor [10]) [nM]
1 | CC[C@H](C)[C@H](NC(=O)[C@H](CCCNC(=N)N)NC(=O)[C@H](CC(=O)O)NC(=O)[C@H](CCCCNC(=O)COCCOCCNC(=O)COCCOCCNC(=O)CC[C@H](NC(=O)CCCCCCCCCCCCCCCCC(=O)O)C(=O)O)NC(=O)C(C)(C)NC(=O)[C@@H](NC(=O)[C@H](CO)NC(=O)[C@H](CC(C)C)NC(=O)[C@H](CC(=O)O)NC(=O)[C@H](CO)NC(=O)[C@@H](NC(=O)[C@H](Cc1ccccc1)NC(=O)[C@@H](NC(=O)CNC(=O)[C@H](CCC(=O)O)NC(=O)C(C)(C)NC(=O)[C@@H](N)Cc1ccc(O)cc1)[C@@H](C)O)[C@@H](C)CC)[C@@H](C)CC)C(=O)N[C@@H](Cc1c[nH]cn1)C(=O)N[C@@H](CCC(N)=O)C(=O)NC(C)(C)C(=O)N[C@@H](CCC(=O)O)C(=O)N[C@@H](Cc1ccccc1)C(=O)N[C@H](C(=O)N[C@@H](CCC(=O)O)C(=O)N[C@@H](Cc1c[nH]c2ccccc12)C(=O)N[C@@H](CC(C)C)C(=O)N[C@@H](CC(C)C)C(=O)N[C@@H](C)C(=O)N[C@@H](CCC(N)=O)C(=O)N[C@@H](CCC(=O)O)C(=O)N1CCC[C@H]1C(=O)N[C@@H](CO)C(=O)N[C@@H](CO)C(=O)NCC(=O)N[C@@H](C)C(=O)N1CCC[C@H]1C(=O)N1CCC[C@H]1C(=O)N1CCC[C@H]1C(=O)N[C@@H](CO)C(N)=O)[C@@H](C)CC [SEQ ID NO: 29, H2N-Y-Aib-E-G-T-F-I-S-D-L-S-I-Aib-K[{AEEA}2-gGlu-C18OH]-D-R-I-H-Q-Aib-E-F-I-E-W-L-L-A-Q-E-P-S-S-G-A-P-P-P-S-NH2] (H-Y[Aib]EGTFISDLSI[Aib]K([AEEA-AEEA-γGlu-C18 diacid])DRIHQ[Aib]EFIEWLLAQEPSSGAPPPS-NH2) | 5.6 | 9.1 | 8000 (≈ 1590 µM) | > 10 | 119 | 0.2 |  |  |  |  |  |  |  | 
2 | B1 |  |  |  |  |  |  | 0.00022 | 0.0335 | > 10 | 0.5 | 112 | 195 |  | 
3 | B2 |  |  |  |  |  |  | 0.00096 | 0.119 | > 10 | 0.6 | 109 | 650 |  | 
4 | B3 |  |  |  |  |  |  | 0.0002 | 0.0378 | > 10 | 8 | 94 |  | 0.0015 | 2
